Results on seven substances are retold here after paper PMC3476979.

This assay deals with endogenous phospho-IKKα/β, O15111;O14920. Briefly: co-immunoprecipitation (IP with anti-Tax mab, blot with anti-phospho-IKK), band quantified as Phospho-IKK/Tax. The settings on record: 293 T cells, parent: 100.
In the case of “wild-type Tax protein of Human T-lymphotropic virus type 1 (HTLV-1), C-terminal 6His tag (Tax-His) (from UniProt P03409) K7R”, the percent of parent stood at 95 % WT. In the case of “wild-type Tax protein of Human T-lymphotropic virus type 1 (HTLV-1), C-terminal 6His tag (Tax-His) (from UniProt P03409) K6-8R”, the percent of parent was 10 % WT. Turning to “wild-type Tax protein of Human T-lymphotropic virus type 1 (HTLV-1), C-terminal 6His tag (Tax-His) (from UniProt P03409) M22”, the percent of parent is less than 1 % WT.

Consider “wild-type Tax protein of Human T-lymphotropic virus type 1 (HTLV-1), C-terminal 6His tag (Tax-His) (from UniProt P03409) P79A; Q81A”, for which the percent of parent was 84 % WT. For “wild-type Tax protein of Human T-lymphotropic virus type 1 (HTLV-1), C-terminal 6His tag (Tax-His) (from UniProt P03409) K1-10R”, the percent of parent was found to be 3 % WT. For the substance “wild-type Tax protein of Human T-lymphotropic virus type 1 (HTLV-1), C-terminal 6His tag (Tax-His) (from UniProt P03409) K7-8R”, the percent of parent amounted to 27 % WT. “wild-type Tax protein of Human T-lymphotropic virus type 1 (HTLV-1), C-terminal 6His tag (Tax-His) (from UniProt P03409) K4-8R”: the percent of parent worked out at 2 % WT.
